Measured values: patent US20160158154A1 (GEORGIA TECH RESEARCH, published 2016)

B1: ZR-ELP (arginine-rich leucine zipper motif ZR fused with an elastin-like polypeptide) (other)
chain: MKGSLEIRAAALRRRNTALRTRVAELRQRVQRLRNEVSQYETRYGPLGGGGSGGGGSGVPGVGVPGVGVPGFGVPGVGVPGVGVPGVGVPGVGVPGFGVPGVGVPGVGVPGVGVPGVGVPGFGVPGVGVPGVGVPGVGVPGVGVPGFGVPGVGVPGVGVPGVGVPGVGVPGFGVPGVGVPGVGVPGC
notes: Forms ZR/ZR homodimers when no ZE partner is present
B2: His6-tagged ZE (peptide)
peptide: LEIEAAALEQENTALETEVAELEQEVQRLENIVSQYRTRYGPLRSHHHHHH
notes: It was co-expressed with ZR-ELP; also called His6ZE; His6-ZE

Experiments:
[1] = target: the molecule itself; test: solution at 4 C; circular dichroism confirmed the coiled coil
Description: The CD spectra of protein complexes were recorded on a Jasco J-810 spectropolarimeter (JASCO). Protein solution samples were prepared in PBS (pH 7.4), and measurements were performed in a 0.2 cm-length cuvette. The spectra were obtained in 1 nm increments within a wavelength range of 200-300 nm. Mean residue ellipticity was measured from protein solutions containing 5 μM of protein complexes at 4° C. Mean residue ellipticity was converted from accumulated spectra of five measurements for each sample. The peak at a wavelength of 222 nm indicated presence of α-helical coiled-coils of ZR/ZR and ZE/ZR.

[2] = target: B1; test: co-expression in E. coli
Excerpt: to prevent degradation during expression (Park W M, et al., Angew. Chem. Int. Ed., 52 (31), 8098-8101 (2013); Zhang K, et., Chem Bio Chem, 10 (16), 2617-2619 (2009)). Co-expressed ZR-ELP, i.e. the fusion peptide having an amino acid sequence of […](G₄S)₂G[(VPGVG)₂VPGFG(VPGVG)₂]₅VPGC (SEQ ID NO:27) and His₆ZE form a protein complex His₆ZE/ZR-ELP, which is resistant to proteolysis in the cytoplasm. All plasmids (pQE60-His₆ZE/ZR-ELP, pQE60-mCherry-ZE, and pQE60-EGFP-Z₅) were transformed into E. coli strain AFIQ-BL21 for expression. All cell cultures were grown at 37° C. in 2× yeast extract and tryptone (YT) media containing ampicillin (200 mg/L) and chloramphenicol (34 mg/L). When the cell culture optical density at 600 nm reached 0.8, protein expression was induced by 1.0 mM of isopropylβ-thiogalactoside (IPTG). Cells were harvested by centrifugation after 5 hours of expression at 37° C.

| binding result [2] | Binder | binding result [1] |
| --- | --- | --- |
|  | B1 | binds |
| binds | B2 |  |
